Laboratory results taken from patent US20250019737A1.

Columns and labels:
[1] = target: nDHFR-linker 1-His6-Ub (pND-Ub) (mouse) (UniProt P00375); assay: cell-based or functional assay
[2] = target: nDHFR-linker 1-His6-Ub (pND-Ub) (mouse) (UniProt P00375)

Sequence of vWA (P00375 whole entry): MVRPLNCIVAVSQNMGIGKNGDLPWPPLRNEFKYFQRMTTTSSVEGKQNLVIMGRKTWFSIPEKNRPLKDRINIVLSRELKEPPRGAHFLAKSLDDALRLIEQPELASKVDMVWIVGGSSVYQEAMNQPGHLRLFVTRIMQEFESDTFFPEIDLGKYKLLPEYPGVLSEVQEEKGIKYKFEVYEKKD
Sequence of vWA Q149A (P00375 whole entry, stated change not applied): as the sequence (P00375 whole entry) above
Sequence of vWA Q149R (P00375 whole entry, stated change not applied): as the sequence (P00375 whole entry) above
Sequence of vWA T173,175R (P00375 whole entry): as above

Row | Substance | bacterial growth on trimethoprim, split DHFR, incomplete ubiquitination cascade (ΔE1, ΔE2) [1] [µg/mL] | Growth efficiency (max growth density divided by the time of half max growth); number matched to the legend entry by its order in the column and its grey tone [2]
1 | cDHFR-Vps9 (pCD-Sub) (from UniProt P00375 109-187; P54787 1-451) | 0.1 | –
2 | vWA (from UniProt P00375) | – | 1230
3 | vWA Q149A (from UniProt P00375) | – | 715
4 | vWA Q149R (from UniProt P00375) | – | 516
5 | vWA T173,175R (from UniProt P00375) | – | 62
